Measured values as given in paper PMC11633176.
Read-outs that look alike come from different tables or passages of the source.

Key:
Assay in all cases: ITC; aliquots of HasBCTD variants (80-200 μM) injected into the cell containing HasR wild type or mutant proteins (4-15 μM); 25°C; 20 mM sodium phosphate, pH 7, 0.08% Zwittergent 3-14; fit to a model with one set of sites
[1] = biological target: HasR_(ΔNterL1) (HasR_(ΔNter) with loop L1 P232GKE replaced by ATSA) (Serratia marcescens) (UniProt Q79AD2)
[2] = biological target: HasR_(ΔNter) (HasR without the signaling domain, linker and TonB-box) (Serratia marcescens) (UniProt Q79AD2)
[3] = biological target: HasR_(ΔNterL1) (HasR_(ΔNter) with loop L1 P232GKE replaced by ATSA) (Serratia marcescens) (UniProt Q79AD2); remark: listed apart in the source
[4] = biological target: HasR_(ΔNter) (HasR without the signaling domain, linker and TonB-box) (Serratia marcescens) (UniProt Q79AD2); remark: listed apart in the source
[5] = biological target: HasR wild type (outer membrane heme transporter, TonB-dependent transporter) (Serratia marcescens)
[6] = biological target: HasR_(ΔNterL10short) (HasR_(ΔNter) with loop L10 R774AFDRKLD replaced by ATSA) (Serratia marcescens) (UniProt Q79AD2)

For “HasBCTD (periplasmic C-terminal domain of the TonB-like protein HasB), wild type (domain or fragment)”, which dH [1] is on record?
The dH was 9.2 kcal/mol.

And the dH [2]?
Its dH is 11.1 kcal/mol.

And the Ka [3]?
The Ka was 3.03e+06 M⁻¹.

What about the dH [3] of the same substance?
Its dH is -9.2 kcal/mol.

What about the stoichiometry N [3] of the same substance?
The stoichiometry N was 1.1.

And the Ka [4]?
The Ka was 2.3e+06 M⁻¹.

And the dH [4]?
The dH was -11.1 kcal/mol.

And the stoichiometry N [4]?
The stoichiometry N was 1.1.

And the Ka [5]?
The Ka was 7.5e+07 M⁻¹.

What about the dH [5] of the same substance?
Its dH is -19.1 kcal/mol.

What about the stoichiometry N [5] of the same substance?
The stoichiometry N was 1.03.

What about the Ka [6] of the same substance?
Its Ka is 1.45e+08 M⁻¹.

And the dH [6]?
The dH was -2.9 kcal/mol.

What about the stoichiometry N [6] of the same substance?
The stoichiometry N was 0.98.
